Data published in paper PMC6092110, “Binding of Dickkopf-3 to CXCR7 Enhances Vascular Progenitor Cell Migration and Degradable Graft Regeneration” (Circulation Research, 2018).

Target: T1, CXCR7 (HA tagged) overexpressed in HEK 293T cells (UniProt P56485 1-362)
T1 construct: CXCR7 (C-X-C chemokine receptor type 7), HA tagged, overexpressed from an expression plasmid in HEK 293T cells; source: HEK 293T, transfected, in lysate
Assay: ELISA; saturation binding: lysates of HEK 293T cells overexpressing the receptor loaded onto high-affinity-binding ELISA plates coated with anti-HA antibody; serial dilutions of AP-conjugated ligand (or AP alone); AP activity read; Scatchard analysis; n=3
Settings: one partner purified

T1 sequence (P56485 whole entry): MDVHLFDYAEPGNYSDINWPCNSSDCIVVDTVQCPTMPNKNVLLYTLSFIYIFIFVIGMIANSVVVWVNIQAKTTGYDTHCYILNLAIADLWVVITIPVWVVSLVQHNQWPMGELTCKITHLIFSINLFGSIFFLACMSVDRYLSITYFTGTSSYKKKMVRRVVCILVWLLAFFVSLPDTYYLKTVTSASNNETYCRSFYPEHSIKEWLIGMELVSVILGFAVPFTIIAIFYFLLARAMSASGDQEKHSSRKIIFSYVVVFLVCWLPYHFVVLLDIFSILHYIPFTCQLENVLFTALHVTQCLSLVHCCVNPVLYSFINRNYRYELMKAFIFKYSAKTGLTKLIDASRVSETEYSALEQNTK

Kd: 14.1 nM
B1: Dkk3-AP (Dkk3 conjugated with alkaline phosphatase) (ligand)
chain: not shown
